System: Escherichia coli TOP10
Assay: shrunken log2 fold change of peptide-encoding DNA abundance (4.5 h post-induction vs induction); higher = less antimicrobial activity (less host growth inhibition)
Conditions: time post-induction: 4.5 h; library: site-saturation at positions 5, 18, 19, 20
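Note: peptides expressed intracellularly from a pBAD plasmid library in pooled LB shake-flask culture, induced with 0.3% L-arabinose, DNA abundance read by NGS, three biological replicates, DESeq2 with apeglm shrinkage.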

| Sequence | shrunken log2 fold change |
| --- | --- |
| RRIRCRPPRLPRPRPRPMTLPRP | -0.135 |
| RRIRRRPPRLPRPRPRPKRDPRP | 0.5 |
| RRIRTRPPRLPRPRPRPSIYPRP | -0.513 |
| RRIRSRPPRLPRPRPRPMSNPRP | 0.129 |
| RRIRHRPPRLPRPRPRPSEHPRP | 0.00525 |
| RRIRRRPPRLPRPRPRPSMYPRP | -0.345 |
| RRIRCRPPRLPRPRPRPLQMPRP | -0.182 |
| RRIRDRPPRLPRPRPRPYPQPRP | -0.582 |
| RRIRARPPRLPRPRPRPVIRPRP | -0.055 |
| RRIRHRPPRLPRPRPRPDAKPRP | -0.0555 |
| RRIRGRPPRLPRPRPRPPFDPRP | 0.835 |
| RRIRTRPPRLPRPRPRPIQYPRP | -0.044 |
| RRIRDRPPRLPRPRPRPKRAPRP | -0.0273 |
| RRIRWRPPRLPRPRPRPRIHPRP | 0.178 |
| RRIRCRPPRLPRPRPRPFHNPRP | 2.29 |
| RRIRPRPPRLPRPRPRPTQKPRP | 0.0334 |
| RRIRARPPRLPRPRPRPVHWPRP | 0.579 |
| RRIRYRPPRLPRPRPRPAYTPRP | -0.222 |
| RRIRTRPPRLPRPRPRPYVCPRP | -0.215 |
| RRIRYRPPRLPRPRPRPYPSPRP | -0.248 |
| RRIRNRPPRLPRPRPRPQHPPRP | -0.325 |
| RRIRERPPRLPRPRPRPDRWPRP | -0.0318 |
| RRIRLRPPRLPRPRPRPGLVPRP | 0.0948 |
| RRIRDRPPRLPRPRPRPKFGPRP | 0.0019 |
| RRIRDRPPRLPRPRPRPPFQPRP | 0.193 |

| Sequence | shrunken log2 fold change |
| --- | --- |
| RRIRARPPRLPRPRPRPSEAPRP | 0.52 |
| RRIRDRPPRLPRPRPRPRNSPRP | -0.394 |
| RRIRDRPPRLPRPRPRPNIGPRP | -0.0132 |
| RRIRFRPPRLPRPRPRPFCMPRP | -0.62 |
| RRIRKRPPRLPRPRPRPIALPRP | 0.0143 |
| RRIRLRPPRLPRPRPRPIKGPRP | -0.106 |
| RRIRYRPPRLPRPRPRPCAIPRP | -0.0633 |
| RRIRCRPPRLPRPRPRPDPTPRP | 0.0668 |
| RRIRDRPPRLPRPRPRPKWIPRP | -0.0438 |
| RRIRLRPPRLPRPRPRPIYPPRP | -0.134 |
| RRIRMRPPRLPRPRPRPQNYPRP | -0.377 |
| RRIRDRPPRLPRPRPRPELAPRP | 1.68 |
| RRIRKRPPRLPRPRPRPFVYPRP | -0.014 |
| RRIRMRPPRLPRPRPRPKIKPRP | 0.248 |
| RRIRPRPPRLPRPRPRPVATPRP | 0.524 |
| RRIRPRPPRLPRPRPRPFCNPRP | -0.609 |
| RRIRERPPRLPRPRPRPCHIPRP | -0.439 |
| RRIRVRPPRLPRPRPRPNCFPRP | -0.158 |
| RRIRCRPPRLPRPRPRPCTVPRP | -0.419 |
| RRIRHRPPRLPRPRPRPCTHPRP | -0.192 |
| RRIRWRPPRLPRPRPRPLDCPRP | -0.117 |
| RRIRCRPPRLPRPRPRPLGKPRP | -0.101 |
| RRIRERPPRLPRPRPRPESGPRP | -0.0112 |
| RRIRYRPPRLPRPRPRPIPIPRP | -0.168 |
| RRIRGRPPRLPRPRPRPEIFPRP | 1.02 |

| Sequence | shrunken log2 fold change |
| --- | --- |
| RRIRDRPPRLPRPRPRPKVRPRP | 0.00434 |
| RRIRWRPPRLPRPRPRPMDYPRP | -0.314 |
| RRIRWRPPRLPRPRPRPAGYPRP | 0.278 |
| RRIRCRPPRLPRPRPRPRIEPRP | -0.205 |
| RRIRGRPPRLPRPRPRPHNYPRP | -0.248 |
| RRIRHRPPRLPRPRPRPIRNPRP | -0.387 |
| RRIRLRPPRLPRPRPRPINCPRP | -0.0463 |
| RRIRMRPPRLPRPRPRPEVYPRP | -0.0346 |
| RRIRIRPPRLPRPRPRPHFYPRP | -0.407 |
| RRIRSRPPRLPRPRPRPTYFPRP | -0.563 |
| RRIRDRPPRLPRPRPRPAMTPRP | 0.812 |
| RRIRMRPPRLPRPRPRPLMNPRP | -0.263 |
| RRIRSRPPRLPRPRPRPGVHPRP | -0.035 |
| RRIRYRPPRLPRPRPRPLTVPRP | -0.146 |
| RRIRCRPPRLPRPRPRPFDSPRP | -0.00174 |
| RRIRNRPPRLPRPRPRPPVAPRP | 0.239 |
| RRIRKRPPRLPRPRPRPMIPPRP | 0.0969 |
| RRIRARPPRLPRPRPRPEESPRP | -0.024 |
| RRIRPRPPRLPRPRPRPYLPPRP | -0.431 |
| RRIRCRPPRLPRPRPRPQDQPRP | -0.101 |
| RRIRCRPPRLPRPRPRPKPDPRP | 0.296 |
| RRIRLRPPRLPRPRPRPEYNPRP | -0.15 |
| RRIRMRPPRLPRPRPRPNWPPRP | 0.096 |
| RRIRERPPRLPRPRPRPGKGPRP | 0.208 |
| RRIRKRPPRLPRPRPRPFQAPRP | 0.0945 |

| Sequence | shrunken log2 fold change |
| --- | --- |
| RRIRRRPPRLPRPRPRPPLTPRP | 0.841 |
| RRIRHRPPRLPRPRPRPGVKPRP | -0.0148 |
| RRIRFRPPRLPRPRPRPFPAPRP | -0.132 |
| RRIRFRPPRLPRPRPRPHENPRP | 0.0161 |
| RRIRCRPPRLPRPRPRPMHMPRP | -0.14 |
| RRIRQRPPRLPRPRPRPTPPPRP | 0.537 |
| RRIRCRPPRLPRPRPRPADFPRP | 1.07 |
| RRIRERPPRLPRPRPRPRRTPRP | 0.176 |
| RRIRWRPPRLPRPRPRPTKDPRP | 0.214 |
| RRIRNRPPRLPRPRPRPDFEPRP | -0.0968 |
| RRIRWRPPRLPRPRPRPPYEPRP | -0.103 |
| RRIRARPPRLPRPRPRPFALPRP | 0.185 |
| RRIRFRPPRLPRPRPRPKVPPRP | -0.109 |
| RRIRDRPPRLPRPRPRPWFTPRP | -0.175 |
| RRIRYRPPRLPRPRPRPVMEPRP | -0.0459 |
| RRIRGRPPRLPRPRPRPLFKPRP | 0.337 |
| RRIRHRPPRLPRPRPRPIWMPRP | -0.0859 |
| RRIRMRPPRLPRPRPRPCGGPRP | 1.19 |
| RRIRERPPRLPRPRPRPNFWPRP | 1.9 |
| RRIRHRPPRLPRPRPRPEVMPRP | -0.0878 |
| RRIRNRPPRLPRPRPRPKPNPRP | 0.513 |
| RRIRIRPPRLPRPRPRPCKEPRP | 1.82 |
| RRIRRRPPRLPRPRPRPMWSPRP | 0.311 |
| RRIRSRPPRLPRPRPRPDEDPRP | -0.00181 |
| RRIRWRPPRLPRPRPRPPAEPRP | 2.93 |

| Sequence | shrunken log2 fold change |
| --- | --- |
| RRIRERPPRLPRPRPRPTQAPRP | -0.0212 |
| RRIRTRPPRLPRPRPRPKTMPRP | -0.0972 |
| RRIRCRPPRLPRPRPRPFKAPRP | -0.713 |
| RRIRTRPPRLPRPRPRPYAGPRP | -0.14 |
| RRIRFRPPRLPRPRPRPWQYPRP | 0.0191 |
| RRIRPRPPRLPRPRPRPWDYPRP | -0.19 |
| RRIRWRPPRLPRPRPRPLYRPRP | -0.552 |
| RRIRDRPPRLPRPRPRPKPWPRP | 0.46 |
| RRIRKRPPRLPRPRPRPFWQPRP | 0.0521 |
| RRIRVRPPRLPRPRPRPRIRPRP | -0.202 |
| RRIRCRPPRLPRPRPRPGRDPRP | 0.18 |
| RRIRYRPPRLPRPRPRPFPPPRP | -0.809 |
| RRIRGRPPRLPRPRPRPISLPRP | -0.228 |
| RRIRPRPPRLPRPRPRPIEAPRP | 0.0713 |
| RRIRNRPPRLPRPRPRPLRTPRP | 0.717 |
| RRIRRRPPRLPRPRPRPLSLPRP | -0.203 |
| RRIRPRPPRLPRPRPRPGESPRP | -0.0364 |
| RRIRFRPPRLPRPRPRPGQIPRP | -0.133 |
| RRIRMRPPRLPRPRPRPGFIPRP | 0.192 |
| RRIRYRPPRLPRPRPRPINWPRP | -0.446 |
| RRIRERPPRLPRPRPRPWSIPRP | 0.0521 |
| RRIRYRPPRLPRPRPRPDPVPRP | -0.0502 |
| RRIRGRPPRLPRPRPRPSHMPRP | -0.207 |
| RRIRLRPPRLPRPRPRPRRHPRP | 0.214 |
| RRIRQRPPRLPRPRPRPKDYPRP | -0.756 |

Source: the supplement of paper PMC9112550, “Optimization of the antimicrobial peptide Bac7 by deep mutational scanning” (BMC Biology, 2022)
